Laboratory results reported in patent US20160333068A1 (BRITISH COLUMBIA CANCER AGENCY BRANCH, published 2016).
Bridge positions count the residues as written; N and C are the ends. Square brackets hold non-standard residues; d marks the D form. AMBF3 = N,N-dimethylammoniomethyl-trifluoroborate

Target: T1, sstr3 (UniProt P32745 1-418, limits assumed)
T1 construct: whole, on cells; Membranes of transfected CHO-K1 cells; The species is printed only for sstr2 (human); also called somatostatin receptor subtype 3
T1 sequence (P32745 whole entry): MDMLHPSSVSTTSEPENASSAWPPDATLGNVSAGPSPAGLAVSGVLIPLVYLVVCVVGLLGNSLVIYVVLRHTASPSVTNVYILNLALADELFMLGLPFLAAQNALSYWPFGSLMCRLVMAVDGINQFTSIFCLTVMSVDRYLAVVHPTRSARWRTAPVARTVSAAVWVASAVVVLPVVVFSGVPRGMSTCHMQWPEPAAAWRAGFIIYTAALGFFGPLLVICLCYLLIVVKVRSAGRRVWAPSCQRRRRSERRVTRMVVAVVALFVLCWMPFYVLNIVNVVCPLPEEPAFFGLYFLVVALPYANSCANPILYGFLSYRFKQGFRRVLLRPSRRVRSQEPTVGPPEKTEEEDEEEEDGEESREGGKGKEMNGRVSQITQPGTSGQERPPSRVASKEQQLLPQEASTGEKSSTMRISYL
Assay: competitive filtration binding assay, displacement of [^125I]-Tyr-somatostatin-14 (0.2 nM) from CHO-K1 membranes
Procedure: Membranes from Chinese hamster ovary K1 cells transfected with sstr1, sstr2, sstr3, sstr5, and [¹²⁵I]-Tyr-somatostatin-14 were obtained from PerkinElmer. A standard filtration binding assay was performed in 96-well plates (MultiScreen; Millipore) to determine the binding affinities (inhibition constant, or Kᵢ) of AMBF₃-TATE against different receptor subtypes. Briefly, membranes ([…]) were incubated with the ¹²⁵I-labelled standard at a concentration of 0.05 nM for sstr2 or 0.2 nM for other subtypes. Increasing concentrations of AMBF₃-TATE were added to the wells in buffer (25 mM N-2-hydroxyethylpiperazine-N-2-ethanesulfonic acid, pH 7.4; 10 mM MgCl₂; 1 mM CaCl₂; and 0.5% bovine serum albumin). After incubation (37° C., 1 h), the wells were aspirated and washed 8 times with 50 mM ice-cold buffer (Tris-HCl, pH 7.4) over grade GF/B filters. The filters were removed and counted by a γ counter (Cobra II; Packard). Data were fitted to a 1-site competition model (GraphPad Prism 6.1 software) to calculate Kᵢ.

B1: AMBF3-TATE (peptide)
peptide: {AMBF3-triazolylacetyl}-[dF]CY[dW]KTCT-OH
modifications: disulfide 2-7
notes: Free C-terminal acid (octreotate); also called ^19F-AMBF3-TATE; ^18F-AMBF3-TATE
Question: How did the Ki turn out when B1 was run?
Answer: 28.4 nM
